Reference: patent EP4818209A2 (Primatope Therapeutics Inc., dated 2026)

Biological target: T1, recombinant human CD40 (human, UniProt P25942 21-120, limits assumed)
T1 construct: biotinylated there; also called hCD40; purified CD40
Test: binding kinetics to human CD40

T1 sequence (P25942 21-120 limits assumed): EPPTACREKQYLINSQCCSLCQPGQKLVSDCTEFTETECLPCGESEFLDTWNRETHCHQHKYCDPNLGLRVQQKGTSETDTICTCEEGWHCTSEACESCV

B1: humanized 2C10 antibody, Clone 2.189.2 (2C10_h3 + 2C10_l2) (antibody, V domains shown)
VH: QVQLVQSGAEVKKPGASVKVSCKASGYTFTNYWMHWVRQAPGQRLEWIGYINPSNDYTKYNQKFKDRATLTADKSANTAYMELSSLRSEDTAVYYCARQGFPYWGQGTLVTVSS
VL: EIVLTQSPATLSLSPGERATLSCSASSSVSYMHWYQQKPGQAPRRWIYDTSKLASGVPARFSGSGSGTDYTLTISSLEPEDFAVYYCHQLSSDPFTFGGGTKVEIK
notes: also called h2C10; mAb 2.189.2
fold difference of affinity against murine 2C10: ≤ 2 fold
